B1: CusA inner membrane RND efflux pump (natural protein, Escherichia coli, UniProt P38054 1-1047, looked up)
chain: MIEWIIRRSVANRFLVLMGALFLSIWGTWTIINTPVDALPDLSDVQVIIKTSYPGQAPQIVENQVTYPLTTTMLSVPGAKTVRGFSQFGDSYVYVIFEDGTDPYWARSRVLEYLNQVQGKLPAGVSAELGPDATGVGWIYEYALVDRSGKHDLADLRSLQDWFLKYELKTIPDVAEVASVGGVVKEYQVVIDPQRLAQYGISLAEVKSALDASNQEAGGSSIELAEAEYMVRASGYLQTLDDFNHIVLKASENGVPVYLRDVAKVQIGPEMRRGIAELNGEGEVAGGVVILRSGKNAREVIAAVKDKLETLKSSLPEGVEIVTTYDRSQLIDRAIDNLSGKLLEEFIVVAVVCALFLWHVRSALVAIISLPLGLCIAFIVMHFQGLNANIMSLGGIAIAVGAMVDAAIVMIENAHKRLEEWQHQHPDATLDNKTRWQVITDASVEVGPALFISLLIITLSFIPIFTLEGQEGRLFGPLAFTKTYAMAGAALLAIVVIPILMGYWIRGKIPPESSNPLNRFLIRVYHPLLLKVLHWPKTTLLVAALSVLTVLWPLNKVGGEFLPQINEGDLLYMPSTLPGISAAEAASMLQKTDKLIMSVPEVARVFGKTGKAETATDSAPLEMVETTIQLKPQEQWRPGMTMDKIIEELDNTVRLPGLANLWVPPIRNRIDMLSTGIKSPIGIKVSGTVLADIDAMAEQIEEVARTVPGVASALAERLEGGRYINVEINREKAARYGMTVADVQLFVTSAVGGAMVGETVEGIARYPINLRYPQSWRDSPQALRQLPILTPMKQQITLADVADIKVSTGPSMLKTENARPTSWIYIDARDRDMVSVVHDLQKAIAEKVQLKPGTSVAFSGQFELLERANHKLKLMVPMTLMIIFVLLYLAFRRVGEALLIISSVPFALVGGIWLLWWMGFHLSVATGTGFIALAGVAAEFGVVMLMYLRHAIEAVPSLNNPQTFSEQKLDEALYHGAVLRVRPKAMTVAVIIAGLLPILWGTGAGSEVMSRIAAPMIGGMITAPLLSLFIIPAAYKLMWLHRHRVRK
B2: CusB membrane fusion protein (natural protein, Escherichia coli, UniProt P77239 29-407, looked up)
chain: EPPAEKTSTAERKILFWYDPMYPNTRFDKPGKSPFMDMDLVPKYADEESSASGVRIDPTQTQNLGVKTATVTRGPLTFAQSFPANVSYNEYQYAIVQARAAGFIDKVYPLTVGDKVQKGTPLLDLTIPDWVEAQSEYLLLRETGGTATQTEGILERLRLAGMPEADIRRLIATQKIQTRFTLKAPIDGVITAFDLRAGMNIAKDNVVAKIQGMDPVWVTAAIPESIAWLVKDASQFTLTVPARPDKTLTIRKWTLLPGVDAATRTLQLRLEVDNADEALKPGMNAWLQLNTASEPMLLIPSQALIDTGSEQRVITVDADGRFVPKRVAVFQASQGVTALRSGLAEGEKVVSSGLFLIDSEANISGALERMRSESATHAH

Assays:
crystal structure = biological target: the molecule itself; experiment: crystal structure
[1] = biological target: B1; experiment: ITC

Row | Kd [1] [µM] | Binder | stoichiometry N (crystal structure)
1 |  | B1 | 3
2 | 5.1 ± 0.3 | B2 | 6

Reference: paper PMC3078058 (Nature, 2011)
